From US20090317401A1
Blank lines part the entries; values can stand above or below the substance they belong to.

Experiments:
Test in all cases: cell-based or functional assay
[1] = biological target: CD16 receptor on PB-NK cells (human) (UniProt P08637)
[2] = biological target: human CD160 receptor (human) (UniProt O95971)
[3] = biological target: HLA-C expressed on K562class I+ cells (human) (UniProt P10321)
Chain of UniProt P10321 (P10321 25-366): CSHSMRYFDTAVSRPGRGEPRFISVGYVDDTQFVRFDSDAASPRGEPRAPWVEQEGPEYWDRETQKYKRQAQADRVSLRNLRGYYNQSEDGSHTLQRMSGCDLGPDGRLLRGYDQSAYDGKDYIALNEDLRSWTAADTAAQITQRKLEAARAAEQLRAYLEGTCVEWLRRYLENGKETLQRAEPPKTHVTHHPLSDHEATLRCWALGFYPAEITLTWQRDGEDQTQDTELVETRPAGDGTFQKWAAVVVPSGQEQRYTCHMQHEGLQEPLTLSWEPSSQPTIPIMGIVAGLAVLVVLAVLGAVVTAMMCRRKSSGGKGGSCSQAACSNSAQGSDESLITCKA

Chain of UniProt O95971 (O95971 25-159): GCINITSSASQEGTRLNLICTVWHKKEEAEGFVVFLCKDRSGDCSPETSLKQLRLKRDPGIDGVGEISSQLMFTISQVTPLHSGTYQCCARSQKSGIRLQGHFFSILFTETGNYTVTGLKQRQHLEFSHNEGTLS
Chain of UniProt P08637 (P08637 17-254): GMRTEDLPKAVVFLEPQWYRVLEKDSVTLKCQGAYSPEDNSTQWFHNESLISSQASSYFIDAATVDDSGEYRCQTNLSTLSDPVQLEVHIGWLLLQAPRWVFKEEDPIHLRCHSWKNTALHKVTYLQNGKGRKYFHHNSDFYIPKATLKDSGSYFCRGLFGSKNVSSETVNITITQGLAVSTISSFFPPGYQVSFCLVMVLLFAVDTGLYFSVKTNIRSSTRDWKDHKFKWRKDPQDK

- IFN-γ production by PB-NK after mAb cross-linking of CD16, against CD160 engagement [1]: 30 fold less
Substance: 3G8 anti-CD16 mAb (IgG1; Beckman-Coulter) (antibody)

- IFN-γ production by PB-NK co-cultured 16 h with K562Class-I+ (Cytometric Bead Array) [2]: 29400 pg/mL
- IFN-γ production by PB-NK co-cultured with K562Class-I+ in the presence of IgG1 isotype control [2]: 23100 pg/mL
- IFN-γ production by PB-NK co-cultured with K562Class-I+ in the presence of IgG2a isotype control [2]: 16100 pg/mL
- IL-6 production by PB-NK co-cultured 16 h with K562Class-I+ (Cytometric Bead Array) [2]: 620 pg/mL
- IL-6 production by PB-NK co-cultured with K562Class-I+ in the presence of IgG1 isotype control [2]: 414 pg/mL
- IL-6 production by PB-NK co-cultured with K562Class-I+ in the presence of IgG2a isotype control [2]: 478 pg/mL
- TNF-α production by PB-NK co-cultured 16 h with K562Class-I+ (Cytometric Bead Array) [2]: 334 pg/mL
- TNF-α production by PB-NK co-cultured with K562Class-I+ in the presence of IgG1 isotype control [2]: 200 pg/mL
- TNF-α production by PB-NK co-cultured with K562Class-I+ in the presence of IgG2a isotype control [2]: 215 pg/mL
Substance: HLA-C expressed on K562class I+ cells (from UniProt P10321 25-366) (ligand)

- IFN-γ production by PB-NK co-cultured 16 h with K562-Cw5 (Cytometric Bead Array) [2]: 20100 pg/mL
- IL-6 production by PB-NK co-cultured 16 h with K562-Cw5 (Cytometric Bead Array) [2]: 689 pg/mL
- TNF-α production by PB-NK co-cultured 16 h with K562-Cw5 (Cytometric Bead Array) [2]: 389 pg/mL
Substance: HLA-Cw5 on K562-HLA-Cw5 transfectants (ligand)

- IFN-γ production by PB-NK co-cultured with K562Class-I+ in the presence of blocking anti-HLA-C mAb [3]: 1150 pg/mL
- IL-6 production by PB-NK co-cultured with K562Class-I+ in the presence of blocking anti-HLA-C mAb [3]: 370 pg/mL
- TNF-α production by PB-NK co-cultured with K562Class-I+ in the presence of blocking anti-HLA-C mAb [3]: 64 pg/mL
Substance: W6/32 anti-HLA mAb (IgG2a; ATCC HB-95) (antibody)
